Experimental data taken from patent CN111138531A (INST MILITARY MEDICINE ACADEMY MILITARY SCIENCES PLA, dated 2020).

Tests used:
[1] = target: sGP (EBOV, UniProt Q05320 33-295); assay: ELISA on coated truncated GP, method as example 2
[2] = target: GP1 (EBOV, UniProt Q05320 33-501); assay: ELISA on coated truncated GP, method as example 2
[3] = target: T1, SUDV GP (SUDV, UniProt Q7T9D9 33-650); assay: ELISA, coated GP 1 μg/mL, 1:3 dilution series of 8F9
T1 sequence: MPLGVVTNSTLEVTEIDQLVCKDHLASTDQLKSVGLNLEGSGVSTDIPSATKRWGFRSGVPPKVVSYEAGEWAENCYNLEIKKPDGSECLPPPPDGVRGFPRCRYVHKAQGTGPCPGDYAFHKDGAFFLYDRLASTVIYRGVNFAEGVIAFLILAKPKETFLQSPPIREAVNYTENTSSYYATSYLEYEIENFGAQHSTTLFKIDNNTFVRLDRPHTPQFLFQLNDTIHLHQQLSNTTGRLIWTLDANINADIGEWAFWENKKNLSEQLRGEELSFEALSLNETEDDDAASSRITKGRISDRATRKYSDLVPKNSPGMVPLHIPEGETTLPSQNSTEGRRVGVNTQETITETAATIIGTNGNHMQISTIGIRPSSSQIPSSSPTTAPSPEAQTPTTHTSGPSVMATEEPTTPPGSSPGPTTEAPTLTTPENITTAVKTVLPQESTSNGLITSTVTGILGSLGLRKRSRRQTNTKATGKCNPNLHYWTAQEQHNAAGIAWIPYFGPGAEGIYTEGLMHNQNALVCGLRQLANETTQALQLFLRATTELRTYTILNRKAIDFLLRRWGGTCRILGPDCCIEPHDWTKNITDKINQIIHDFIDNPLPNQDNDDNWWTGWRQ

[4] = target: T2, RESTV GP (RESTV, UniProt Q66799 34-651); assay: as above
T2 sequence: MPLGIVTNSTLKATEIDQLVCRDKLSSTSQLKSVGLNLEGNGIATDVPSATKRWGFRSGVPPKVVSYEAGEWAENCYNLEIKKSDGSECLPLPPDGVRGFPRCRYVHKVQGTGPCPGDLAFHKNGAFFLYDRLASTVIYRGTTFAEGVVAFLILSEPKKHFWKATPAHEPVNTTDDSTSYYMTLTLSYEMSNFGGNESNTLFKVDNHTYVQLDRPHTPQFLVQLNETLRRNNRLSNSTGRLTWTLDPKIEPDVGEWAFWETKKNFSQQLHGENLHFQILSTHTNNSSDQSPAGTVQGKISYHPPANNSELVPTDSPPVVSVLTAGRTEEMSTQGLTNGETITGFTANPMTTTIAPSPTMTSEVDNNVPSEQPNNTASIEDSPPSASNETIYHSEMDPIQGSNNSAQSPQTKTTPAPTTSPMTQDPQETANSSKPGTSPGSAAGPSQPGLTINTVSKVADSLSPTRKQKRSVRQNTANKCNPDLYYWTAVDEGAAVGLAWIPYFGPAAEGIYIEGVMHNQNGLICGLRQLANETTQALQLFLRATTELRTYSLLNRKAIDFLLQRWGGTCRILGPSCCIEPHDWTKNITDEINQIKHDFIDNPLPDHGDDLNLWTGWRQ

[5] = target: T3, EBOV GP (EBOV, UniProt Q05320 33-650); assay: ELISA, coated GP 1 μg/mL, 1:3 dilution series of 8F9 from 10 μg/mL
T3 sequence: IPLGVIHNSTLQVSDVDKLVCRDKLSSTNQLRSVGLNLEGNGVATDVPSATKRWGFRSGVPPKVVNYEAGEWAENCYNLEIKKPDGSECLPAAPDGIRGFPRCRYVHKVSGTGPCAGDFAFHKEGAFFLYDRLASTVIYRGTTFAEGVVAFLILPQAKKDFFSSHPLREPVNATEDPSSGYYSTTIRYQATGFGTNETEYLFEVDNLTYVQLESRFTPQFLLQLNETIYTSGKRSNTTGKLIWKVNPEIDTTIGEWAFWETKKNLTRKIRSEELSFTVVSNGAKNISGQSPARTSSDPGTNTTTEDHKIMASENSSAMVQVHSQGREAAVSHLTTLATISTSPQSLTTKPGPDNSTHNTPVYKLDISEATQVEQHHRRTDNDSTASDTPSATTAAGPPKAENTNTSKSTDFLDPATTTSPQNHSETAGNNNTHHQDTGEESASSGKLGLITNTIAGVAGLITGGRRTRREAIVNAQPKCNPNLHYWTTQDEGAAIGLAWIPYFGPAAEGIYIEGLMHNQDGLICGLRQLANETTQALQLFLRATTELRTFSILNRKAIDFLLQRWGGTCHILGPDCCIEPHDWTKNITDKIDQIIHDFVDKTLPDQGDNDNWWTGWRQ

B1: 单克隆抗体8F9 (antibody, V domains shown)
VH: EVQLLESGGGLVQPGGSLRLSCAASEFTFSNYAMNWVRQAPGKGLEWVSGISTRGSSTYYADSVKGRFTISRDNSKNTLYLQMNSLRVEDTAVYYCAKDRLSVFGVVLISSDYYGMDVWGQGTTVTVSS
VL: AIRMTQSPFSLSASVGDRVTITCRASRTISSYLNWYQKKPGKAPKLLIYAASSLQSGVPSRFSGSGSGTDFTLTISSLQPEDFATYYCQQSYSTPMTFGQGTRLEIKT
Q: For B1, which EC50 [1] is on record?
A: 8.8 ng/mL

Q: And the EC50 [2]?
A: 9.5 ng/mL

Q: Does B1 bind [3]?
A: no binding (tested: 10μg/mL (highest concentration tested))

Q: Does B1 bind [4]?
A: no binding (tested: 10μg/mL (highest concentration tested))

Q: And the EC50 [5]?
A: 15 ng/mL
